Source: the nanobody polyreactivity screen of Harvey et al. (2022)

Assay: yeast display, Sf9 membrane polyspecificity reagent, FACS + sequencing; frameworks hold sequencing errors
In short: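 Galactose induction of a Saccharomyces cerevisiae BJ5465 synthetic nanobody display library ran 36–48 hours. The cells were then stained for 1 hour at 4 °C with 10% biotinylated, detergent-solubilized Sf9 membrane reagent, pulled down on streptavidin microbeads and FACS-sorted into low and high (top ~1%) gates on expression and reagent-binding fluorescence. Labels for polyreactivity follow the gate of origin.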

| Sequence | polyreactivity (PSR sort gate) |
| --- | --- |
| QVHLVESGGGLVQAGGSLRLSCAASGFTFPEYYMGWYRQAPGKESELVAAINYSDGRTFYADSVKGRFTISRDNAKNSVYLQMNSLKPEDTAVYYCASDLSYDVWFFGPDYDYSGQGTQVTVSS | low polyreactivity |
| QVQLVESGGGLVQAGGSLRLICAASGSNFNPYAMGWYRQAPGKERELVAAINSGDSTNYADSVKGRFSISRDNAKNTLYLQMNSLKPEDTAVFYCANRYRRRYNYWGQGTQETVSS | high polyreactivity |
| QVQLVESGGGLVQAGGSLRLSCAASGSTSESNAMGWYRQAPGKERELVAAIRSSGGGTYYADSVKGRFTISRDNAKNTVYLQMNSLKPEDTAVYYCAKDVPEDYEFYYWGQGTQVTVSS | low polyreactivity |
| QVQLVESGGGLVQAGGSLRLSCAASGITFKYYAMGWYRQAPGKERELVAAITSGTRTNYADSVKGRFTISRDNAKNTVYLQMNSLKPEDTAVYYCAKVGSWYTSHRFGYWGHGTQVTVSS | high polyreactivity |
| QVQLVESGGGLVQAGGSLRLSCAASGITFRTNAMGWYRQAPGKERELVAAITTNGGNTYYADSVKGRFTISRDNAKNTVYLQMNSLKPEDTAVYYCNTATYVDSFPDPGDHWGQGTQVTVSS | low polyreactivity |
| QVQLVESGGGLVQAGGSLRLSCAASGSIFYGYTMGWYRQEPGKERELVAAIRKSGGSTNYADSVKGRFTISRDNAKNNVYLQMNSLKPEDTAVYYCAAAYYRGRGYYWGQGTQVTVSS | high polyreactivity |
| QVQLVESGGGLVQAGGSLRLSCAASGRIFIHYAMGWYRQAPGKERELVAAITFNGGSTYYADSVKGRFTISRDNAKNTVYLQMNSLKPEDTAVYYCAARLSKRSGYYYWGQGTQVTVSS | high polyreactivity |
| QVQLVESGGGLVQAGGSLRLSCAASGFTFVNYVMGWYRQAPGKERELVAAISRSGGSTYYADSVKGRFTISRDNAKNTVYLQMNSLKPEDTAVYYCAARWFYRAGFNYWGQGTQVTVSS | high polyreactivity |
| QVQLVESGGGLVQAGGSLRLSCAASGITIRGYAMGWYRQAPGKERELVAAINTRTSTYYADSVKGRFTISRDNAKNTVYLQMNSLKPEDTAVYYCNRDPVYYDFDYWGQGTQVTVSS | low polyreactivity |
| QVQLVESGGALVQAGGSLRLTSAASGFTFFRNAMRWYRQAPGKERELVAAINWSGGSTYYADSVKGRFTISRDNAKNTVYLQMHSLKPEDTAVYFCAADLSSTESDYWRQGTQVTVSS | high polyreactivity |
| QVQLVESGGGLVQAGGSLRLSCAASGFIFAINAMGWYRQAPGKEREFVAAISSDGASTYYADSVKGRFTISRDNAKNTVYLQMNSLKPEDTAVYYCNAVPYEWTYPYEYYYWGQGTQVTVSS | low polyreactivity |
| QVQLVESGGGLVQAGGSLRLSCAASGSTFRRNAMGWYRQAPGKERELVAAISGSGGSTYYADSVKGRFTISRDNAKNTVYLQMNSLKPEDTAVYYCAARVVKNYKSDSWGQGTQVTVSS | high polyreactivity |
| QVQLVESGGGLVQAGGSLRLSCAASGSTFVKNVMGWYRQAPGKERELVAGITRGGSTYYADSVKGRFTISRDNAKNTGSLQMNSLKPEDTAVYYCANRYAWDRDYWGQGTQVTVSS | high polyreactivity |
| QVQLVESGGGLVQAGGSLRLSCAASGSTFSTNVMGWYRQAPGKERELVAAISTIGGSTYADSVKGRFTISRDNAKNTVYLQMNSQKPEDTAVYYCAKRSRYPYYPYGYWGQGTQVTVSS | high polyreactivity |
| QVQLVESGGGLVQAGGSLRLSCAASGFIFQYYGMGWYRQAPGQVRELVAAIDSRGGSTYYADSVKGRFTISRDNAKNTVSLQMNSLKPADTAVYYCAAMGLYQGTLNHFYYWGQGTQVTVAS | low polyreactivity |
| QVQLVESGGGLVQAGGSLRLSCAASGSIFYRNDMGWYRQAPGKERELVAAITWSGVNTYYADSVKGRFTISRDNAKNTVYLQMNSLKPEDTAVYYCAVPSRYWLNRGFDYWGQGTQVTVSS | low polyreactivity |

| Sequence | polyreactivity (PSR sort gate) |
| --- | --- |
| QVQLVESGGCLVQAGGSLRLSCAASGSIFSGNAMGWYRQAPGKERELVAAISRSGGSKYYADSVKGRFTISRDNAKNTVYLQMNSLKPEDTAVYYFAAYRTHGPPRAIRFDYWGQGTQVTVSS | high polyreactivity |
| QVQLVESGGGLVQAGGSLRLSCAASGRIFSSYTMGWYRQAPGKERELVAAISWRGGSTYYADSVKGRFTISRDNAKNTVYLQMNSLKPEDTAVYYCAADSRSDPGDYWGQGNQVTVSS | low polyreactivity |
| QVQLVESGGGLVQAGGSLRLSCAGSGIILYWNTMGWYRHAPGKERELVAAITWSVGRTYYADSVKGRFTISRDNAKNTVYLQMNSLKPEDTAVYYCATTFQYYWFSLYDYWGQGTQVTVSS | low polyreactivity |
| QDHLVESGGGLVQAGGSLRLSCAASGNIIWWNAMGWYRQAPGKERELVAAITSDSTTYYADSVKGRFTISRDNAKNTVYLQLNSLKPEDTAVYYCAAYSYGGQGVDYGYWGQGTQVTVSS | low polyreactivity |
| QVQLVESGGGLVQAGGSLRLICAASGITFYRNARGWYRQAPGKERELVAAITSGTSTYYADSVKGRFTISRDNAKFTVYLQMISLKPEDTAVYYCAKRTPPGYYGFDYWGQGTQVNVSS | low polyreactivity |
| QVQLVESGGGLVQAGGSLRLSCAASGFIFSNNAMGWSRQAPGKERELVAAITSSGGRTYYADSVKGRFTISRDNAKNTVYLLMNSLKPEDTAVYYCAAARYDIMGYWGQGTQVTVSS | high polyreactivity |
| QVQLVESGGGLVQAGGSLRLSCPASGRTFVVYAMGWYRQAPGKEREFVAAITTRGNSTYYADSVKGRFTISRDNAKNTVYLQMNSLKPEDTAVYYCAAVLRLSTLTTDFGYWGQGTQVTVSS | high polyreactivity |
| QVQLVESGGGLVQAGGSLRLSCAASGSIFHSYAMGWYRQAPGKERELVAGITSSCDRTNYADSVKGRFTISRDNAKITVYLQMNSLKPEDNAVYYCAAVARYPKGRTRRGYGYWGQGTQVTVSS | high polyreactivity |
| QVQLVESGGGLFQAGGSLRLSCAASGSIIRKYAMGWSIQAPGKERELVAAISRRTGNTYYADSVKGRFTISRDNAKNTVYLQMKSLKPEDTAVYYCAADYYSSSSWSEVDSWGQGTQVTVSS | high polyreactivity |
| QVQLVESGGGLVQAGGSLRLSCAASGRTFHYYAMGWYRQAPGKERELVASISSGGSTHYADSVKGRFTISRDNANNTGYLQMNSLKPEDTAVYYCNRVDGYGPRNKVPYVTYGVYYWGQGTQVTVSS | low polyreactivity |
| QVQLVESGGGLVQAGGSLRLSCAASGFTFRVYAMGWYRPAPGKERELVAAISVRGDSTYYADSVKGRFTISRDNAKNTVYLQMNSLKPEDTAVYYCNAALLGKQYYSNPNYDYWGQGTQVTVSS | high polyreactivity |
| QVQLVESGGGLVQAGGSLRLRCAASGSIFLVNALGWYRQAPGKEWELVASITWRGGRTYYADSVKGRFTISRDTAKKTVYLQMNRLKPADTAVYYCSALNYRTGERLRYDYWGQGTQVTVSS | low polyreactivity |
| QVQLVESGGGLVQAGGSLRLSCAASGITFFTYTMGWYRQAPGKERELVARIRWDGGSTYYADSVKGRFTISRDNAKNTVYLQMNSLKPEDTAVYYCAADYPYSTYDYWGQVTQVTVSS | low polyreactivity |
| QVQLQECGGGLVQAGGSLRLSCAASGNIFDAYIMGWYRQAPGKERELVASVTDGGSTNYADSVKGRFTISRDNAKNTVYLQMNSLKPEDTAVYYCAAIVYPDILTYFDYDYDYFYWGQGTQVTVGS | low polyreactivity |
| QVQLVESGGGLVQAGGSLRLSCAASGYIFGYYVMGWYRQAPGKERELVAAISGRGGRTYYADSVKGRFTISRDNAMNTVYLQMNSLKPEDTAVYYCAAADLPGTMYYWGQGTQVTVSS | high polyreactivity |
| QVQLVESGGGLVPAGGSLRLSCDASGRTFWFYAMGWYRQAQGKERELVASITSGGGTNYADSVKGRFTISRDNAKNTVYLQMNSLKPEDTAVYYCAADRAYGVLGNEGGYWGQGTQVTVSS | high polyreactivity |
